Reference: patent US20260250410A1 (SICHUAN HUIYU PHARMACEUTICAL, published 2026)

T1: HuCDCP1-A (human, UniProt Q9H5V8 30-430)
T1 construct: range 30-430; expressed in HEK-293T, purified by Fc/his tag; also called human CDCP1-A; membrane-distal region of CDCP1; not shown: Fc or his tag
T1 sequence (looked up): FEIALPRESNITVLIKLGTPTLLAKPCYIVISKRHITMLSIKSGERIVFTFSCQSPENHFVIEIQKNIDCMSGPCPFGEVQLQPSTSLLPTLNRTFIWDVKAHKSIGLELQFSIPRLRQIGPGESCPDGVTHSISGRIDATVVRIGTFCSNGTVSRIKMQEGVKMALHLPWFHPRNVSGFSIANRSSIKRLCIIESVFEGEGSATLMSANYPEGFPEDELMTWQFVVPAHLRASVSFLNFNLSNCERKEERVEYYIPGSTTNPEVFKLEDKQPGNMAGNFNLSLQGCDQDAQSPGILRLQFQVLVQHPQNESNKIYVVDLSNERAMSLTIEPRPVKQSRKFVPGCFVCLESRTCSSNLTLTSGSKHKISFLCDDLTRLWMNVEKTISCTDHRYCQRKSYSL

T2: HuCDCP1-B (human, UniProt Q9H5V8 343-667)
T2 construct: range 343-667; expressed in HEK-293T, purified by Fc/his tag; also called human CDCP1-B; membrane-proximal region of CDCP1; not shown: Fc or his tag
T2 sequence (looked up): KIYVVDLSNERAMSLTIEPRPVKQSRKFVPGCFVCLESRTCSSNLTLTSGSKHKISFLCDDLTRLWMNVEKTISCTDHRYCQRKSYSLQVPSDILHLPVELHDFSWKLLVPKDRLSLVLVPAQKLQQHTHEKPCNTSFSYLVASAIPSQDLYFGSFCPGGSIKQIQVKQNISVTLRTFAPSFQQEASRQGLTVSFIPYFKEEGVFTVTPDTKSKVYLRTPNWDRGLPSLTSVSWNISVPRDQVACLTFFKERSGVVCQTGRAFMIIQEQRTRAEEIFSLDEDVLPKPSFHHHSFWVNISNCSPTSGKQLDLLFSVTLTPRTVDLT

T3: MsCDCP1 (mouse, UniProt Q5U462 30-666)
T3 construct: extracellular domain; also called mouse CDCP1; not shown: Fc or his tag
T3 sequence (looked up): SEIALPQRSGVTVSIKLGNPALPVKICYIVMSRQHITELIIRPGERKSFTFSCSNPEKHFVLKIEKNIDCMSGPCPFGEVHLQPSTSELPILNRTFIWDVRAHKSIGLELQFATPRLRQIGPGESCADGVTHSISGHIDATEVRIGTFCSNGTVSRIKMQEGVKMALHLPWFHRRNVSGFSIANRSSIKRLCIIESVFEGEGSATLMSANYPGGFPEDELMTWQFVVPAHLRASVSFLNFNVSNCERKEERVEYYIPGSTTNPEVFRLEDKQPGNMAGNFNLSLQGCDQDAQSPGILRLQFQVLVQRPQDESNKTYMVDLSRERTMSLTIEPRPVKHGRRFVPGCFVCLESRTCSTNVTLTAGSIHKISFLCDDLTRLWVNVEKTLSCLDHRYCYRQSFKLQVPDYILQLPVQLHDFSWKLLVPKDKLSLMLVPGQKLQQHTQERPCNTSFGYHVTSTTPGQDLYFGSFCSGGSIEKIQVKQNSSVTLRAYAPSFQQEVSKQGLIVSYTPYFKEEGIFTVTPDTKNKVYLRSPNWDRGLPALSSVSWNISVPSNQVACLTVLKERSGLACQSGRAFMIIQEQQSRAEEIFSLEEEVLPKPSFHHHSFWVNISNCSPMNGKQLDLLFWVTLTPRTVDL

T4: CynoCDCP1 (Macaca fascicularis, UniProt A0A2K5VLA8 30-667)
T4 construct: extracellular domain; also called Macaca fascicularis CDCP1; monkey CDCP1; not shown: Fc or his tag
T4 sequence: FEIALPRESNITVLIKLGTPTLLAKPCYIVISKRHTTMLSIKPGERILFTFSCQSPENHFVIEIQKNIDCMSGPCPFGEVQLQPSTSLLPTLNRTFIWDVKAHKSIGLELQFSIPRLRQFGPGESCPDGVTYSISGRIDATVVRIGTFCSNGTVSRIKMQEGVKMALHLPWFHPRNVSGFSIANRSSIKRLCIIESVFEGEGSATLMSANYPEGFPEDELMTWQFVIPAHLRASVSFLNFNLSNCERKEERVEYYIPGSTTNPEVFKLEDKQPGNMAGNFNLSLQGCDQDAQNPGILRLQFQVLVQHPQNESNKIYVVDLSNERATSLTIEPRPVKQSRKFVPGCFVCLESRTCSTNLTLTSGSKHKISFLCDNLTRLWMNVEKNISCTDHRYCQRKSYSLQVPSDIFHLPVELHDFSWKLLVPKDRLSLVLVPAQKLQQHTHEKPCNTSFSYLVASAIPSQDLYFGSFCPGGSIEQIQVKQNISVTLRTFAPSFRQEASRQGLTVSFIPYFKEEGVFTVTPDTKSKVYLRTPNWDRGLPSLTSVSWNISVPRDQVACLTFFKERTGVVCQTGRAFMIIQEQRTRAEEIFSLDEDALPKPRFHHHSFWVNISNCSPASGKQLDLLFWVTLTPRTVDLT


Assays:
Assay in all cases: SPR (Caterra), antigen immobilized
HuCDCP1-A = target: T1, HuCDCP1-A
Experimental: (§1) The humanized anti-CDCP1 antibodies obtained from Example 11 were subjected to gene cloning, constructed into pTT5 expression vector for a small amount of expression in CHO cells (Expi-CHOS: Gibco A29127), and purified with an Fc affinity column (AT Protein A Diamond Plus. No. AA402312). Antibody purity was analyzed by HPLC and determined by Nanodrop. High-throughput affinity assay was carried out for a small amount of antibodies by Caterra.
(§2) Further, Partial anti-CDCP1 humanized antibodies were selected for expression, and then the affinity of the antibodies to the antigens Hu-CDCP1-A, Hu-CDCP1-B, Cyno-CDCP1, and Ms-CDCP1 was detected according to the above affinity detection method.

HuCDCP1-B = target: T2, HuCDCP1-B
Experimental: as §1, §2

MsCDCP1 = target: T3, MsCDCP1
Experimental: as §1, §2

CynoCDCP1 = target: T4, CynoCDCP1
Experimental: as §1, §2

Binder	Kd (HuCDCP1-A) [nM]	Kd (HuCDCP1-B) [nM]	Kd (MsCDCP1) [nM]	Kd (CynoCDCP1) [nM]	binding result (MsCDCP1)
1CP-124 (antibody, human IgG1, kappa, V domains shown, humanized 3C11, human IgG1 kappa) VH: QVQLVQSGAEVKKPGASVKVSCKASGYNFISYWLHWVRQAPGQGLEWMGGIYPGNTDTTYNQKFKGRVTMTRDTSTSTVYMELSSLRSEDTAVYYCIRYDYDRGMDYWGQGTLVTVSS VL: DIQMTQSPSSLSASVGDRVTITCRASEDIYYRLAWYQQKPGKAPKLLISGATALETGVPSRFSGSGSGKDYTFTISSLQPEDIATYYCQHYWNIPWTFGQGTKVEIKR	132	100	274	24.2	
1CP-129 (antibody, human IgG1, kappa, V domains shown, humanized 3C11, human IgG1 kappa) VH: QVQLVQSGAEVKKPGASVKVSCKASGYNFISYWLHWVRQAPGQGLEWMGGIYPGNTDTTYNQKFKGRVTMTADTSTSTVYMELSSLRSEDTAVYYCIRYDYDRGMDYWGQGTLVTVSS VL: DIQMTQSPSSLSASVGDRVTITCRASEDIYYRLAWYQQKPGKAPKLLISGATALETGVPSRFSGSGSGKDYTLTISSLQPEDIATYYCQHYWNIPWTFGQGTKVEIKR	126	157		53.8	no binding (tested: 150 nM highest concentration)
1CP-125 (antibody, human IgG1, kappa, V domains shown, humanized 3C11, human IgG1 kappa) VH: QVQLVQSGAEVKKPGASVKVSCKASGYNFISYWLHWVRQAPGQGLEWMGGIYPGNTDTTYNQKFKGRVTMTADTSTSTVYMELSSLRSEDTAVYYCIRYDYDRGMDYWGQGTLVTVSS VL: DIQMTQSPSSLSASVGDRVTITCRASEDIYYRLAWYQQKPGKAPKLLISGATALETGVPSRFSGSGSGKDYTFTISSLQPEDIATYYCQHYWNIPWTFGQGTKVEIKR	559	55.1		2.27	no binding (tested: 150 nM highest concentration)
1CP-128 (antibody, human IgG1, kappa, V domains shown, humanized 3C11, human IgG1 kappa) VH: QVQLVQSGAEVKKPGASVKVSCKASGYNFISYWLHWVRQAPGQGLEWMGGIYPGNTDTTYNQKFKGRVTMTRDTSTSTVYMELSSLRSEDTAVYYCIRYDYDRGMDYWGQGTLVTVSS VL: DIQMTQSPSSLSASVGDRVTITCRASEDIYYRLAWYQQKPGKAPKLLISGATALETGVPSRFSGSGSGKDYTLTISSLQPEDIATYYCQHYWNIPWTFGQGTKVEIKR	76	109		47.5	no binding (tested: 150 nM highest concentration)
1CP-152 (antibody, human IgG1, kappa, V domains shown, humanized 8C9, human IgG1 kappa) VH: EVQLVESGGGLVQPGRSLRLSCTTSGLTFTHYHMSWVRQAPGKGLEWVAIIRNKAYGYTTDYSASVRGRFTISRDDSKSILYLQMNSLKTEDTAVYYCVREGGYGYDGTFAYWGQGTLVTVSS VL: DIQMTQSPSSLSASVGDRVTITCRASESVDNYGISFMNWFQQKPGQAPKLLIYAASNQGSGVPSRFSGSGSGTDFTLTISSMQPEDFATYYCQQSKEVPRTFGGGTKVEIKR	105	110	745	2.9	
1CP-157 (antibody, human IgG1, kappa, V domains shown, humanized 8C9, human IgG1 kappa) VH: EVQLVESGGGLVQPGRSLRLSCTTSGLTFTHYHMSWVRQAPGKGPEWVAIIRNKAYGYTTDYSASVRGRFTISRDDSKSILYLQMNSLKTEDTAVYYCVREGGYGYDGTFAYWGQGTLVTVSS VL: DIQMTQSPSSLSASVGDRVTITCRASESVDNYGISFMNWFQQKPGQPPKLLIYAASNQGSGVPSRFSGSGSGTDFTLTISSMQPEDFATYYCQQSKEVPRTFGGGTKVEIKR	226	359		2.6	no binding (tested: 150 nM highest concentration)
1CP-117 (antibody, human IgG1, kappa, V domains shown, humanized 8E5, human IgG1 kappa) VH: QVQLVQSGSELKKPGASVKVSCKASGYTLTDFSMHWVRQAPGQGLEWMGWINTETGAPTYADDFKGRFVLSLDTSVSTAYLQISSLKAEDTAVYYCSRGRDYDPHFDYWGQGTLVTVSS VL: EIVLTQSPATLSLSPGERATLSCRASQSISDFLHWYQQKPGQSPRLLIKYASQSISGIPARFSGSGSGSDFTLTISSVEPEDFAVYYCQSAHSFPYTFGQGTKLEIKR	76.5	182	212	1.84	
1CP-121 (antibody, human IgG1, kappa, V domains shown, humanized 8E5, human IgG1 kappa) VH: QVQLVQSGSELKKPGASVKVSCKASGYTLTDFSMHWVRQAPGQGLEWMGWINTETGAPTYADDFKGRFVLSLDTSVSTAYLQISSLKAEDTAVYYCSRGRDYDPHFDYWGQGTLVTVSS VL: EIVLTQSPATLSLSPGERATLSCRASQSISDFLHWYQQKSGQSPRLLIKYASQSISGIPARFSGSGSGSDFTLTISSVEPEDFAVYYCQSAHSFPYTFGQGTKLEIKR	99.8	131	141	1.51	
